# Substrate: CCCC(=O)Oc1ccc([N+](=O)[O-])cc1
# Assay: purified protein
# Format: biochemical, Microbulbifer thermotolerans
# Conditions: 20 mM Tris-HCl pH 8.17, 46.27 °C, 0.1-1 mM substrate
protein,measurement,value
"MtEst45 (Microbulbifer thermotolerans) (protein, mature form without 21-residue signal peptide (495 aa of 516); N-terminal His6 (pCold I), E. coli BL21(DE3), tag not reported cut; about 45 kDa on SDS-PAGE) APRFISNLDIISFDGTELDANLFVPDTPPPDGGYPTVLFTNSWALDKHQYLLQAKALAEKGYLVMSYSTRGFGKSGGLVDVAGDNTLADTRVLIDWLEANYPVGKLGMAGISYGAGISLLTAAADSRVDAVAALSGWSDVVEGLYPNNTVNLVWGTLLVNTAFKREPIVDQIWSNLRNGHNLSDVFTFSASRSALSYVDALNANGTAVLLSNNFADYLFKPNSTIDLYTLLEGPKKLLLNPGTHAVTETLGGNGGHIWTTSFRWFDRYLKGENNGIDREPKVDMTVRISNRLEQFDDFPVTGKQSHWYLHPRLTYFGNGQLKSNPYSGWRWSNQFHSGADTAAGTGIPLVSDALEGLGIPVYTFMPAINGYYAIEYQSPLLWNGMKIRGTPTLEMWITPSKPEVQLHLHLYDTGPLGMGRLITHAPITLRNAQVGREQKIDVEFFTTSYDVPAGHRVTLAIDTEGLIYQKPADTDYEITVPYRSDRVSKLAIPQL",Km,99.8 µM
